In the test the target is SpyCatcher003. The test is described as follows: gel shift assay of isopeptide ligation. (In general: In EMSA bound probe runs differently from free probe, usually more slowly.)

A value given as a limit tells only on which side of the number the result lay.

Turning to “SpyTag003 Ala^S11 thioamide variant (peptide)”, the fold change of ligation rate against Oxo (slower) amounted to 38 fold.

For “SpyTag003 Ile^S6 thioamide variant (peptide)”, the fold change of ligation rate against Oxo (slower) came out at 5.4 fold.

As for “SpyTag003 Met^S8 thioamide variant (peptide)”, the fold change of ligation rate against Oxo (slower) is more than 2000 fold.

With “SpyTag003 Val^S3 thioamide variant (peptide)”, the fold change of ligation rate against Oxo (faster) was found to be 1.8 fold.

For the substance “SpyTag003 Val^S3-Pro^S4 dual thioamide peptide”, the fold change of ligation rate against Oxo (slower) stood at 1.2 fold and the fold change of ligation rate against Val^S3 (slower) came to 2 fold.

Take “SpyTag003 Val^S7 thioamide variant (peptide)”: the fold change of ligation rate against Oxo (faster) amounted to 1.4 fold.

Turning to “SpyTag003 Val^S9 thioamide variant (peptide)”, the fold change of ligation rate against Oxo (slower) was 1.6 fold.

The values are drawn from article doi:10.1101/2024.10.10.617615.
